{"source": "paper PMC6764118", "origin": "cited, not measured here", "molecular_target": "Lys199 (UniProt position 223, AKQRLKCASLQ)", "assay": "chemical modification"}
{"substance": "Human serum albumin (HSA) (Homo sapiens)", "values": [{"measurement": "pKa", "result": "∼8"}]}
